Test [1] deals with T1, soluble human CD40-MsIgG2a (human, UniProt P25942).
T1 construct: soluble, fused to mouse IgG2a; also called recombinant human CD40-msG2a chimeric protein; CD40-MsIgG2a (Celldex, 60 kD by SDS-PAGE)
The test can be described thus: BLI (Octet QKe), antibody captured on anti-human Fc (AHC) biosensors, analyte soluble human CD40-MsIgG2a 3.13 to 0.098 nM, 25 C, 1:1 fit. On the procedure: (§1) Purified antibodies from Example 1 were captured on Anti-Human Fc Capture (AHC) biosensors (Fortebio Product No. 18-5060). Each antibody was prepared in dilution buffer (10mMPO4+150 mM NaCl+1 mg/mL BSA+0.5% Tween 20, pH 7.2) to 0.5 μg/mL and loaded on freshly hydrated AHC biosensors for 35-50 sec at 25° C. and 1000 rpm plate shake speed to achieve a target response of 0.2 nm. Low levels of ligand were captured to limit any effects of mass transport of analyte on kinetic parameters. For one assay, eight biosensors were loaded with the same antibody.
(§2) Binding was determined by exposing six of the antibody loaded biosensors to analyte: soluble human CD40-MsIgG2a (Celldex, 60 kD by SDS-PAGE). Affinity measurements were determined using 2-fold serial dilutions of analyte ranging from 3.13 to 0.098 nM in dilution buffer at 25° C. and 1000 rpm plate shake speed. Association of the antibody loaded biosensors in analyte wells was carried out for 1200 seconds, the biosensors were then moved to dilution buffer wells for 2.5 hrs (9000 sec) for dissociation measurements.
(§3) Fortebio's Data Analysis Software version 8.2.0.7 (Pall ForteBio, Menlo Park, CA) was used in each case to derive kinetic parameters from the concentration series of analyte in dilution buffer binding to captured antibody. The association and dissociation curves were fitted to a 1:1 binding model using the data analysis software according to the manufacturer's guidelines.

The target in test [2] is T1, soluble human CD40-MsIgG2a. The test can be described thus: BLI (Octet QKe), antibody captured on anti-human Fc (AHC) biosensors, analyte soluble human CD40-MsIgG2a 3.13 to 0.098 nM, 25 C, 1:1 fit; column head kdis(1/s). The method, then: as §1, §2, §3
The target in test [3] is T2, recombinant human CD40-Fc (human, UniProt P25942 21-193).
T2 construct: also called soluble recombinant human CD40/Fc chimera from R&D Systems; not shown: The antibody Fc domain of the R&D Systems chimera and any linker to it
T2 sequence (P25942 21-193 limits assumed, form in doubt): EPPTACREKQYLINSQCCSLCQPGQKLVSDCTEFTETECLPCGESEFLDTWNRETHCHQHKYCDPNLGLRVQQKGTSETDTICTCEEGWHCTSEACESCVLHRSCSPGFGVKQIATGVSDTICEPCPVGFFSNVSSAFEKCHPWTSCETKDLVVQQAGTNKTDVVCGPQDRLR
The test is described as follows: ELISA on coated recombinant human CD40-Fc, detection anti-human IgG F(ab')2-HRP, OD 450-650. On the procedure: Microtiter plates were coated with recombinant human CD40-Fc in PBS, and then blocked with 5% bovine serum albumin in PBS. […] The plates were washed with PBS/Tween and then incubated with a goat-anti-human IgG F(ab′)2-specific polyclonal reagent conjugated to horseradish peroxidase at 37° C. After washing, the plates were developed with HRP substrate, and analyzed at OD 450-650 using a microtiter plate reader.

The target in test [4] is T2, recombinant human CD40-Fc. The test is described as follows: ELISA on coated recombinant human CD40-Fc, detection anti-human IgG F(ab')2-HRP, OD 450-650 (the y axis is labelled 'Median Fluorescence'). On the procedure:
Microtiter plates were coated with recombinant human CD40-Fc in PBS, and then blocked with 5% bovine serum albumin in PBS. Protein A purified human mAbs from Example 1 and an isotype control were added at various concentrations and incubated at 37° C. The plates were washed with PBS/Tween and then incubated with a goat-anti-human IgG F(ab′)2-specific polyclonal reagent conjugated to horseradish peroxidase at 37° C. After washing, the plates were developed with HRP substrate, and analyzed at OD 450-650 using a microtiter plate reader.

We go through six molecules from patent publication US20250115663A1 (CELLDEX THERAPEUTICS, published 2025).

T1 sequence (P25942 21-193 limits assumed): as the sequence (P25942 21-193 limits assumed, form in doubt) above

B1: anti-CD40 human monoclonal antibody 6H6 (antibody, human IgG2, V domains shown)
VH: QVQLVESGGGVVQPGRSLRFSCAASGFTLSSYGMHWVRQAPGKGLEWVAVIWDDGSNKYYADSVKGRFTISRDNSKNTLYLQMNSLRAEDTAVYYCARAGGSGRYYNYFDYWGQGTLVTVSS
VL: EIVMTQSPATLSVSPGERATLSCRASQSVRSNLAWYQQKPGQAPRLLIYGASTRATGIPARFSGSGSGTDFTLTISSLQSEDFAVYYCQQHNNWLTFGGGTKVEIK
notes: Human IgG2
B1: in test [1], binding was put at a Kd of 2.8 pM and the kon is 905000 M⁻¹ s⁻¹. Also, the koff in test [2] was 2.49e-06 s⁻¹.

B2: F(ab')2 fragment of antibody 3G5 (other)
VH: QVQLVESGGGVVQPGKSLRLSCAASGFTFSSNGIHWVRQAPGKGLEWVAVIWSDGSNKFYADSVKGRFTISRDNSKNTLYLQMNSLRAEDTAVYYCARASGSGSYYNFFDYWGQGTLVTVSS
VL: EIVMTQSPATLSVSPGERATLSCRASQSVRSNLAWYQQKPGQAPRLLIYGASTRATGIPARFSGSGSGTEFTLTINSLQSEDFAVYYCQQHNKWITFGQGTRLEIK
notes: F(ab')2 version of the IgG2 antibody, lacking the Fc domain; also called 3G5 F(ab')2
For the molecule B2, the half-maximal effective concentration (EC50 (read off the curve)) in test [3] was ~0.3 nM.

B3: anti-CD40 human monoclonal antibody 3B6 (antibody, human IgG2, V domains shown)
VH: EVQLLESGGGLVQPGGSLRLSCAASGFTFSSYAMSWVRQAPGKGLEWVSGITGTGGSTYYADSVKGRFTISRDNSKNTLYVQMNSLRAEDTAVYYCAKRAGGSFYYYYGMDVWGQGTTVTVSS
VL: DIVMTQSPLSLPVTPGEPASISCRSSQSLLHSTGYNYLDWYLQKPGQSPQLLIYLGSNRASGVPDRFNGSGSGTDFTLKISRVEAEDFGVYYCMQALQTPWTFGHGTKVEIK
notes: Human IgG2
As to B3, in test [1], binding was characterised by a dissociation constant (Kd) of 7.9 pM and the kon came out at 782000 M⁻¹ s⁻¹. Moreover, the koff in test [2] came out at 6.14e-06 s⁻¹.

B4: anti-CD40 human monoclonal antibody 1B4 (antibody, human IgG2, V domains shown)
VH: EVQLLESGGGLVQPGGSLRLSCAASGFTFSSYAMTWVRQVPGKGLEWVSGITGSGANTFYTDSVKGRFTISRDNSNNSLYLQMNSLRADDTAVYYCAKRNGGSYYYYYGMDVWGQGTTVTVSS
VL: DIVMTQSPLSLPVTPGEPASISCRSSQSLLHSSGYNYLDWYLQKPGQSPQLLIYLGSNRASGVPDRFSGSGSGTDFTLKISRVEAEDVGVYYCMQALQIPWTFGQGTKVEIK
notes: Human IgG2
In the case of B4, in test [1], the Kd came to 10.5 pM and the kon was 832000 M⁻¹ s⁻¹. The koff in test [2] stood at 8.76e-06 s⁻¹.

B5: anti-CD40 human monoclonal antibody 1B5-NK (antibody, human IgG2, V domains shown)
VH: QVQLVESGGGVVQPGRSLRLSCAASGFTFSSFGMHWVRQAPGKGLEWVTLIWFDGSSKYYADSVKGRFTISRDNSKNTLYLQMNSLRAEDTAVYYCVRGFAAVAGWYFDFWGRGTLVTVSS
VL: DIQMTQSPSSLSASVGDRVTITCRASQGVRKYLAWYQQKPGKVPKLLIYAASTLQSGVPSRFSGSGSGTDFTLTISSLQPEDVATYYCQKYFSAPYTFGQGTKLEIK
notes: Human IgG2
With B5, the “EC50 (read off the curve)” value in test [4] was ~0.09 µg/mL.

B6: F(ab')2 fragment of antibody 3C3 (other)
VH: QVQLVESGGGVVQPGRSLRLSCAGSGFIFSRYGMYWVRQAPGKGLEWVAVIWYDGSYKYYADSVKGRFTISRDNSKNTLYLQMNSLRAEDTAVYYCARESPWYYFDYWGQGTLVTVSS
VL: DIQMTQSPSSLSASVGDRVTITCRASQGISNYLAWYQQKPGKVPKLLIYAASTLQSGVPSRFSGSGSGTDFTLTISSLQPEDVATYYCQKYKSAPFTFGPGTKVDIK
notes: F(ab')2 version of the IgG2 antibody, lacking the Fc domain; also called 3C3 F(ab')2
Take B6: the “EC50 (read off the curve)” value in test [3] was ~0.4 nM.
